The values below come from PMC3024409, “Protein-Protein Interactions within Late Pre-40S Ribosomes” (PLoS ONE, 2011).

The chains are these.
B1: Ltv1 (untagged) (natural protein, S. cerevisiae, UniProt P34078 1-463, looked up)
chain: MSKKFSSKNSQRYVVVHRPHDDPSFYDTDASAHVLVPVSNPNKTSPEADLRKKDVSSTKPKGRRAHVGEAALYGINFDDSEYDYTQHLKPIGLDPENSIFIASKGNEQKVEKKNIEDLFIEPKYRRDEIEKDDALPVFQRGMAKPEYLLHQQDTTDEIRGFKPDMNPALREVLEALEDEAYVVNDDVVVEDISKKTQLQGDNYGEEEKEDDIFAQLLGSGEAKDEDEFEDEFDEWDIDNVENFEDENYVKEMAQFDNIENLEDLENIDYQADVRRFQKDNSILEKHNSDDEFSNAGLDSVNPSEEEDVLGELPSIQDKSKTGKKKRKSRQKKGAMSDVSGFSMSSSAIARTETMTVLDDQYDQIINGYENYEEELEEDEEQNYQPFDMSAERSDFESMLDDFLDNYELESGGRKLAKKDKEIERLKEAADEVSKGKLSQRRNRERQEKKKLEKVTNTLSSLKF
notes: Ltv1, S. cerevisiae; gene amplified from genomic DNA with primers from the start codon to the stop codon, cloned between SfoI and BamHI of pSV272; also called export adaptor Ltv1; source: E. coli Rosetta, purified (Ni-NTA, TEV cleavage, MonoQ, gel filtration); not shown: His6-MBP, N-terminal, cleaved
B3: Rio2 (untagged) (enzyme, S. cerevisiae, UniProt P40160 1-425, looked up)
chain: MKLDTSHMRYLTTDDFRVLQAVEQGSRSHEVVPTPLIHQISGMRSQSGTNRAISDLAKLSLISKMRNVKYDGYRLTYNGIDYLALKTMLNRDTVYSVGNTIGVGKESDIYKVSDKNGNPRVMKIHRLGRTSFHSVRNNRDYLKKSNQGANWMHLSRLAANKEYQFMSMLYSKGFKVPEPFDNSRHIVVMELIEGYPMRRLRKHKNIPKLYSDLMCFIVDLANSGLIHCDFNEFNIMIKDKLEDENDCGFVVIDFPQCISIQHQDADYYFQRDVDCIRRFFKKKLKYEPKPDSSMLDTEGFGDGYKYAYPDFKRDVKRTDNLDELVQASGFSKKHPGDRGLETAVESMRNAVYNSDDDMSNDEAEEENGEGDYSEEDEYYDSELDNESSEDDSEDAQEEENERIIEALSSGVENLKMDKLGNYILE
notes: Rio2, S. cerevisiae; Cloning into the NheI site of pET23a may leave a few vector residues before the first methionine; also called kinase Rio2; protein kinase Rio2; source: E. coli Rosetta, purified (Hi-Trap Q, MonoQ, gel filtration)

Common to all, as to assay: pull-down; 3 µM MBP-tagged bait and 5 µM untagged prey in 50 mM HEPES pH 7.5, 150 mM KCl; 10 min at room temperature, 1 h at 4°C with amylose resin; washed, eluted with 20 mM maltose; SDS-PAGE, Coomassie
Holding throughout (details): both partners purified

In assay [1] the target is T1, (MBP-)Enp1 (S. cerevisiae, UniProt P38333 1-483).
T1 construct: Enp1, S. cerevisiae; gene amplified from genomic DNA, cloned between SfoI and BamHI of pSV272; source: E. coli Rosetta, purified (Ni-NTA, MonoQ, gel filtration); not shown: His6-MBP, N-terminal, kept
T1 sequence (looked up): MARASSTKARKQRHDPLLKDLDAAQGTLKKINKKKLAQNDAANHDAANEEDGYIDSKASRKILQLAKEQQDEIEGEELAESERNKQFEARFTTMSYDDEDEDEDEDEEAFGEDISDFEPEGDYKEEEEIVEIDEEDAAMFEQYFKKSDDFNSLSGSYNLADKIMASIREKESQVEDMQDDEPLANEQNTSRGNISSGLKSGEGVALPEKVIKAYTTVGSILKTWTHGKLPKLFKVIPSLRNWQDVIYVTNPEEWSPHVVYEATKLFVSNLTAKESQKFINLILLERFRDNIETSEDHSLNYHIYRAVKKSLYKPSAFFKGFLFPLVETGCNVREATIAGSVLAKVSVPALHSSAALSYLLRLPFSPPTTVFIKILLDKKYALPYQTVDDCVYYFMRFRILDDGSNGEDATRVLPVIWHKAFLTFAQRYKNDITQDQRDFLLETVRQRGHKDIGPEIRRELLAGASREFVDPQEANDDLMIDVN

Assay [2] has as its target T2, Enp1 (untagged) (S. cerevisiae, UniProt P38333 1-483).
T2 construct: Enp1, S. cerevisiae; gene amplified from genomic DNA, cloned between SfoI and BamHI of pSV272; source: E. coli Rosetta, purified (Ni-NTA, TEV cleavage, MonoQ, gel filtration); not shown: His6-MBP, N-terminal, cleaved
T2 sequence (looked up): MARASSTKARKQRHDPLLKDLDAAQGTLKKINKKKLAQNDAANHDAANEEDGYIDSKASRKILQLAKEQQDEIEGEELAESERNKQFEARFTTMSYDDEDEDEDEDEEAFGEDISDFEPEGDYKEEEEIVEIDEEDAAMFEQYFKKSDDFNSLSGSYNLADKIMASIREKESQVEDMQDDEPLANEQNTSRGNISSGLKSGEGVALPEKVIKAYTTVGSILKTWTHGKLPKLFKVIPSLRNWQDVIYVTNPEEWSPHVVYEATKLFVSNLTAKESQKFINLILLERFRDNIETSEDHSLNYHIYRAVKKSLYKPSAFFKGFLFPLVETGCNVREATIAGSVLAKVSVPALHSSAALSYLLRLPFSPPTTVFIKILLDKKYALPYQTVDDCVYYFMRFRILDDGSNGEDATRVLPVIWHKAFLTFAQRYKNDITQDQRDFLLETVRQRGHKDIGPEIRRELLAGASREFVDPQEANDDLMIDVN

For assay [3], the target named is T3, (MBP-)Tsr1 (S. cerevisiae, UniProt Q07381 1-788).
T3 construct: Tsr1, S. cerevisiae; gene amplified from genomic DNA with primers from the start codon to the stop codon, cloned between SfoI and HindIII of pSV272; source: E. coli Rosetta, purified (Ni-NTA, MonoQ, gel filtration; TEV protease omitted); not shown: His6-MBP, N-terminal, kept
T3 sequence (looked up): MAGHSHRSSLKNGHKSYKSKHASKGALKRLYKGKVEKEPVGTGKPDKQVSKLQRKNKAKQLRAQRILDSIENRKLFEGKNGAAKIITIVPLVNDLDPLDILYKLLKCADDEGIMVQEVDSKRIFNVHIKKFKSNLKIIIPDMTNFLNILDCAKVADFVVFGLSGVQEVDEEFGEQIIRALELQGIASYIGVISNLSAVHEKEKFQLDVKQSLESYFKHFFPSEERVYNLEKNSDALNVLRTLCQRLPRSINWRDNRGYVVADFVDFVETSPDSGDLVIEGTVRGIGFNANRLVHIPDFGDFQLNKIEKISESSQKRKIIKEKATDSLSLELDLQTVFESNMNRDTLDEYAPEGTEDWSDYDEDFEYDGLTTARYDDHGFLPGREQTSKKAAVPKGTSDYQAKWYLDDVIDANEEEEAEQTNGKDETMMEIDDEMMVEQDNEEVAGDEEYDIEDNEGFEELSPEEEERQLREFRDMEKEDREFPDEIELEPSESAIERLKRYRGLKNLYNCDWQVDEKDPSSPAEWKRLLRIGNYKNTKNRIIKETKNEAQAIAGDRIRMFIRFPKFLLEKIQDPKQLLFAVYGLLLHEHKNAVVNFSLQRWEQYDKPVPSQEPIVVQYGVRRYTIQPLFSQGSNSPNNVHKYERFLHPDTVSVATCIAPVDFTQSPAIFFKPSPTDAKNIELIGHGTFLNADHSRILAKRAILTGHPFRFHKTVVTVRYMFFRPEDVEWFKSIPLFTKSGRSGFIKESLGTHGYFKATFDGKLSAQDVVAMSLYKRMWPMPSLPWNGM

Assay [4] addresses B3.
Assay [5] addresses B1.
Assay [6] deals with T4, (MBP-)Rio2 (S. cerevisiae, UniProt P40160 1-425).
T4 construct: Rio2, S. cerevisiae; gene amplified from genomic DNA with primers from the start codon to the stop codon, cloned between SfoI and BamHI of pSV272; 93 kDa as printed; source: E. coli Rosetta, purified (Ni column, MonoQ, gel filtration); not shown: His6-MBP, N-terminal, kept
T4 sequence (looked up): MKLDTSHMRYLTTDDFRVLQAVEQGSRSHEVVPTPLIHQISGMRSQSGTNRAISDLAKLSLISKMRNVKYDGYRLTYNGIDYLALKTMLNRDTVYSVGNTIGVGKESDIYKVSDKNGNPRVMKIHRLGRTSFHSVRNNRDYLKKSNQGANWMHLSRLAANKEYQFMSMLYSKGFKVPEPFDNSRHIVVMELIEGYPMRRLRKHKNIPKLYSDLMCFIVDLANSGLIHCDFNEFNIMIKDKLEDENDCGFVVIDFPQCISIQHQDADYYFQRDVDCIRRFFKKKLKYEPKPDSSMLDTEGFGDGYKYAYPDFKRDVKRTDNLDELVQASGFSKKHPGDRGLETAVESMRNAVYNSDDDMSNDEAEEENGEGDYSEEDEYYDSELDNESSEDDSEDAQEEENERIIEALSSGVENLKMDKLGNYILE

Regarding B1, in assay [1], the binding result was “binds”.

B2: (MBP-)Ltv1 (natural protein, S. cerevisiae, UniProt P34078 1-463, looked up)
chain: MSKKFSSKNSQRYVVVHRPHDDPSFYDTDASAHVLVPVSNPNKTSPEADLRKKDVSSTKPKGRRAHVGEAALYGINFDDSEYDYTQHLKPIGLDPENSIFIASKGNEQKVEKKNIEDLFIEPKYRRDEIEKDDALPVFQRGMAKPEYLLHQQDTTDEIRGFKPDMNPALREVLEALEDEAYVVNDDVVVEDISKKTQLQGDNYGEEEKEDDIFAQLLGSGEAKDEDEFEDEFDEWDIDNVENFEDENYVKEMAQFDNIENLEDLENIDYQADVRRFQKDNSILEKHNSDDEFSNAGLDSVNPSEEEDVLGELPSIQDKSKTGKKKRKSRQKKGAMSDVSGFSMSSSAIARTETMTVLDDQYDQIINGYENYEEELEEDEEQNYQPFDMSAERSDFESMLDDFLDNYELESGGRKLAKKDKEIERLKEAADEVSKGKLSQRRNRERQEKKKLEKVTNTLSSLKF
notes: Ltv1, S. cerevisiae; gene amplified from genomic DNA with primers from the start codon to the stop codon, cloned between SfoI and BamHI of pSV272; source: E. coli Rosetta, purified (Ni-NTA, MonoQ, gel filtration; TEV protease omitted); not shown: His6-MBP, N-terminal, kept
Consider B2, for which the binding result in assay [2] is on record as “binds”. Consider B3, for which the binding result in assay [3] is given as “binds”.

B4: (MBP-)Rps15 (natural protein, S. cerevisiae, UniProt Q01855 2-142, looked up)
chain: SQAVNAKKRVFKTHSYRGVDLEKLLEMSTEDFVKLAPARVRRRFARGMTSKPAGFMKKLRAAKLAAPENEKPAPVRTHMRNMIIVPEMIGSVVGIYNGKAFNQVEIRPEMLGHYLGEFSITYTPVRHGRAGATTSRFIPLK
notes: ribosomal protein Rps15, S. cerevisiae; gene amplified from genomic DNA, cloned between SfoI and HindIII of pSV272; source: E. coli Rosetta, purified (Ni-NTA, MonoQ, gel filtration); not shown: His6-MBP, N-terminal, kept
As to B4, the binding result in assay [4] and in assay [5] was “binds” each time.

B5: (MBP-)Dim1 (enzyme, S. cerevisiae, UniProt P41819 1-318, looked up)
chain: MGKAAKKKYSGATSSKQVSAEKHLSSVFKFNTDLGQHILKNPLVAQGIVDKAQIRPSDVVLEVGPGTGNLTVRILEQAKNVVAVEMDPRMAAELTKRVRGTPVEKKLEIMLGDFMKTELPYFDICISNTPYQISSPLVFKLINQPRPPRVSILMFQREFALRLLARPGDSLYCRLSANVQMWANVTHIMKVGKNNFRPPPQVESSVVRLEIKNPRPQVDYNEWDGLLRIVFVRKNRTISAGFKSTTVMDILEKNYKTFLAMNNEMVDDTKGSMHDVVKEKIDTVLKETDLGDKRAGKCDQNDFLRLLYAFHQVGIHFS
notes: Dim1, S. cerevisiae; gene amplified from genomic DNA with primers from the start codon to the stop codon, cloned between SfoI and HindIII of pSV272; source: E. coli Rosetta, purified (Ni-NTA, MonoS, gel filtration; no TEV protease); not shown: His6-MBP, N-terminal, kept
For B5, the binding result in assay [4] is listed as “binds”.

B6: Dim1 (untagged) (enzyme, S. cerevisiae, UniProt P41819 1-318, looked up)
chain: MGKAAKKKYSGATSSKQVSAEKHLSSVFKFNTDLGQHILKNPLVAQGIVDKAQIRPSDVVLEVGPGTGNLTVRILEQAKNVVAVEMDPRMAAELTKRVRGTPVEKKLEIMLGDFMKTELPYFDICISNTPYQISSPLVFKLINQPRPPRVSILMFQREFALRLLARPGDSLYCRLSANVQMWANVTHIMKVGKNNFRPPPQVESSVVRLEIKNPRPQVDYNEWDGLLRIVFVRKNRTISAGFKSTTVMDILEKNYKTFLAMNNEMVDDTKGSMHDVVKEKIDTVLKETDLGDKRAGKCDQNDFLRLLYAFHQVGIHFS
notes: Dim1, S. cerevisiae; gene amplified from genomic DNA with primers from the start codon to the stop codon, cloned between SfoI and HindIII of pSV272; also called methylase Dim1; source: E. coli Rosetta, purified (Ni-NTA, TEV cleavage, MonoS, gel filtration); not shown: His6-MBP, N-terminal, cleaved
B6: the binding result in assay [6] is given as “binds”.
